Results reported in US20240101668A1 (WUGEN, published 2024).
Substitutions are numbered along the chain they refer to.

What was measured:
[1] = biological target: T1, huCLL1-Q244-Avi-Tev-His (human, UniProt Q5QGZ9 65-265); assay: BLI
T1 construct: extracellular domain; also called CLL-1 K244Q
T1 sequence (looked up): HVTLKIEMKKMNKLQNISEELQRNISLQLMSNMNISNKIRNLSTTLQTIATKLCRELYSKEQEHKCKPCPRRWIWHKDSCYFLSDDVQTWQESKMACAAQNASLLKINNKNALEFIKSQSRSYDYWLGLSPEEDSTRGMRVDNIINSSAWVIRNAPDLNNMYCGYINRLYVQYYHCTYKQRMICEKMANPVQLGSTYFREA

[2] = biological target: T2, huCLL1-K244-Avi-Tev-His (human, UniProt Q5QGZ9 65-265); assay: BLI
T2 construct: extracellular domain
T2 sequence (looked up): T1 sequence (looked up) with Q180K

B1: Polypeptide No. 180 (scFv, V domains shown)
VH: QVQLVQSGAEVKKPGASVKVSCKASGYTFTSLDINWVRQAPGQGLEWMGSMNPRSGSTAYAQSFQGRVTMTRDTSTSTVYMELSSLRSEDTAVYYCAKSDYGDYLDYWGQGTLVTVSS
VL: DIQMTQSPSSLSASVGDRVTITCRASQSISPWLAWYQQKPGKAPKLLIYDASNLQSGVPSRFSGSGSGTDFTLTISSLQPEDFATYYCQQSYSTPLTFGQGTKLEIKR
notes: scFv
[1]
  binding result: binds
[2]
  binding result: binds

B2: Polypeptide No. 181 (scFv, V domains shown)
VH: QVQLVQSGAEVKKPGASVKVSCKASGYTFTGYYMHWVRQAPGQGLEWMGVINPSGGSTSYAQKFQGRVTMTRDTSTSTVYMELSSLRSEDTAVYYCARGRTDDAFDIWGQGTLVTVSS
VL: B1 VL with S28T, P31S, D50A, N53T, T94I, Q100G
notes: scFv
[1]
  binding result: binds
[2]
  binding result: binds

B3: Polypeptide No. 182 (scFv, V domains shown)
VH: QVQLVQSGAEVKKPGASVKVSCKASGYTFTDYYMHWVRQAPGQGLEWLGIINTGAGTTNYAPKFQGRVTMTRDTSTSTVYMELSSLRSEDTAVYYCARGLTSDHFDYWGQGTLVTVSS
VL: B1 VL with S28N, S30G, D50E, S52F, N53T, Y92D, S93N, T94I, L96I, L104V
notes: scFv
[1]
  binding result: binds
[2]
  binding result: binds

B4: Polypeptide No. 183 (scFv, V domains shown)
VH: QVQLVQSGAEVKKPGSSVKVSCKASGGTFSSYAISWVRQAPGQGLEWMGGIIPKFGPPNYAPKFQGRVTITADESTSTAYMELSSLRSEDTAVYYCARNSYGDDFDYWGQGTLVTVSS
VL: B1 VL with P31S, D50A, N53S, S56R, L104V
notes: scFv
[1]
  binding result: binds
[2]
  binding result: binds

B5: Polypeptide No. 184 (scFv, V domains shown)
VH: QVQLVQSGAEVKKPGASVKVSCKASGGTFGNYGINWVRQAPGQGLEWMGVINPSSGGTNLAQKFQGRVTMTRDTSTSTVYMELSSLRSEDTAVYYCARSLGWPSPYMDVWGQGTMVTVSS
VL: B1 VL with P31R, W32Y, A34N, Q55E, S56T, L96W
notes: scFv
[1]
  binding result: binds
[2]
  binding result: binds

B6: Polypeptide No. 185 (scFv, V domains shown)
VH: EVQLLESGGGLVQPGGSLRLSCAASGFTFSNSDMYWVRQAPGKGLEWVSAISGSDGTTYYADSVKGRFTISRDNSKNTLYLQMNSLRAEDTAVYYCARDDYGDQGFDLWGRGTLVTVSS
VL: B1 VL with S28D, S30R, P31N, W32D, A34G, S56T, S93N, T94M, L96Y
notes: scFv
[1]
  binding result: binds
[2]
  binding result: binds

B7: Polypeptide No. 186 (scFv, V domains shown)
VH: QVQLVQSGAEVKKPGASVKVSCKASGYTFTKYYMHWVRQAPGQGLEWMGWINPNSGNTGYAQKFQGRVTMTRDTSTSTVYMELSSLRSEDTAVYYCARDIAVAGSTYYYYGMDVWGQGTTVTVSS
VL: DIQMTQSPSSLSASVGDRVTITCQASQDISNYLNWYQQKPGKAPKLLIYDATNLETGVPSRFSGSGSGTDFTLTISSLQPEDFATYYCQQSYSTPPTFGGGTKVEIKR
notes: scFv
[1]
  binding result: binds
[2]
  binding result: binds

B8: Polypeptide No. 187 (scFv, V domains shown)
VH: EVQLLESGGGLVQPGGSLRLSCAASGFTFSSYDMHWVRQAPGKGLEWVSSISSSSSYIYYADSVKGRFTISRDNSKNTLYLQMNSLRAEDTAVYYCARDIDDVAGDYWGQGTLVTVSS
VL: B7 VL with D50G, T52S, N53S, E55Q, T56S, P96F, G100Q, V104L
notes: scFv
[1]
  binding result: binds
[2]
  binding result: binds

B9: Polypeptide No. 188 (scFv, V domains shown)
VH: EVQLLESGGGLVQPGGSLRLSCAASGFTFSSYGMHWVRQAPGKGLEWVSYTSSSSSTIYYADSVKGRFTISRDNSKNTLYLQMNSLRAEDTAVYYCARGNVGDNWNDDEAFLGWGQGTLVTVSS
VL: B7 VL with T52S, S91T, S93D, P96Y, G100Q, V104L
notes: scFv
[1]
  binding result: binds
[2]
  binding result: binds

B10: Polypeptide No. 189 (scFv, V domains shown)
VH: EVQLLESGGGLVQPGGSLRLSCAASGLTAGSNYMSWVRQAPGKGLEWVSAISDDGHWTDYADSVKGRFTISRDNSKNTLYLQMNSLRAEDTAVYYCVKDDGEGSGIDWGQGTLVTVSS
VL: B1 VL with S28G, P31D, W32Y, D50G, N53S, L96W, Q100P, L104V, E105D
notes: scFv
[1]
  binding result: binds
[2]
  binding result: binds

B11: Polypeptide No. 190 (scFv, V domains shown)
VH: EVQLLESGGGLVQPGGSLRLSCAASGFTFSSSWMHWVRQAPGKGLEWVSTINTNGDAAYYADSVKGRFTISRDNSKNTLYLQMNSLRAEDTAVYYCARDTVLDDYGDYDDYGMDVWGQGTTVTVSS
VL: EIVMTQSPATLSVSPGERATLSCRASQSVSSSYLAWYQQKPGQAPRLLIYGASTRAAGIPARFSGSGSGTEFTLTISSLQSEDFAVYYCQQYGSSPFTFGPGTKVDIKR
notes: scFv
[1]
  binding result: binds
[2]
  binding result: binds

B12: Polypeptide No. 194 (scFv, V domains shown)
VH: QVQLVQSGAEVKKPGASVKVSCKASGVTFSNSGINWVRQAPGQGLEWMGWMNPASGDTGYAQKFQGRVTMTRDTSTSTVYMELSSLRSEDTAVYYCARGEYGAEYFQHWGQGTLVTVSS
VL: B1 VL with P31S, N53S, Q55E, Y92H, T94L, L96P, K103R
notes: scFv
[1]
  binding result: binds
[2]
  binding result: binds

B13: Polypeptide No. 195 (scFv, V domains shown)
VH: QVQLVQSGAEVKKPGASVKVSCKASGYTFTNSYIHWVRQAPGQGLEWMGIINPSGDSTTYAQKFQGRVTMTRDTSTSTVYMELSSLRSEDTAVYYCAKPTTGDGMDVWGQGTTVTVSS
VL: B7 VL with Q24R, D28G, Y32W, N34A, T52S, P96L
notes: scFv
[1]
  binding result: binds
[2]
  binding result: binds

B14: Polypeptide No. 196 (scFv, V domains shown)
VH: QVQLVQSGAEVKKPGASVKVSCKASGYTLTNYYMHWVRQAPGQGLEWMGWISPTDGKTKYAQKFQGRVTMTRDTSTSTVYMELSSLRSEDTAVYYCTTDLLGDWFDPWGQGTLVTVSS
VL: B7 VL with Q24R, Q27R, D28S, S30R, N31S, T52S, S93N, P96W, G100Q
notes: scFv
[1]
  binding result: binds
[2]
  binding result: no binding

B15: Polypeptide No. 197 (scFv, V domains shown)
VH: QVQLVQSGAEVKKPGASVKVSCKASGYTLTNNWMHWVRQAPGQGLEWMGWMNPNSGNTGYAQKFQGRVTMTRDTSTSTVYMELSSLRSEDTAVYYCATATADDAFDIWGQGTMVTVSS
VL: B1 VL with P31T, D50G, N53S, S93D, T94I, L96I, Q100P, L104V, E105D
notes: scFv
[1]
  binding result: binds
[2]
  binding result: binds

B16: Polypeptide No. 198 (scFv, V domains shown)
VH: EVQLLESGGGLVQPGGSLRLSCAASGFTFSTFWMSWVRQAPGKGLEWVATISYDGSNQYYADSVKGRFTISRDNSKNTLYLQMNSLRAEDTAVYYCARLELHEGRFDYWGQGTLVTVSS
VL: B7 VL with Q24R, D28S, N31S, T52S, S91A, Y92N, T94F, P96F, G100P, E105D
notes: scFv
[1]
  binding result: no binding
[2]
  binding result: binds

B17: Polypeptide No. 199 (scFv, V domains shown)
VH: QVQLVQSGAEVKKPGASVKVSCKASGDTFTGYHIHWVRQAPGQGLEWMGWMNPDSGSTGYAQKFQGRVTMTRDTSTSTVYMELSSLRSEDTAVYYCTTDRLYGDYFDYWGQGTLVTVSS
VL: B1 VL with I29V, P31S, N53S, S91A, Y92N, T94F, L96F, Q100P, L104V, E105D
notes: scFv
[1]
  binding result: no binding
[2]
  binding result: binds
